Here are results for one protein from publication PMC7255509, “Crystal structure of the catalytic C‐lobe of the HECT‐type ubiquitin ligase E6AP” (Protein Science : A Publication of the Protein Society, 2020).

The series concerns the molecule itself. The series can be described thus: crystal structure; crystallised at >=30 mg/ml (crystal used: 60 mg/ml), 20°C, sitting drops, 0.1 M calcium chloride, 0.1 M sodium acetate pH 4.6, 30% PEG400; 1.3 Å; dimer of two symmetry-related molecules.

As a reminder, the stoichiometry N is the number of molecules, sites or subunits per partner or assembly.

B1: C-lobe of the catalytic (HECT) domain of E6AP (domain or fragment, UniProt Q05086-2 741-852, looked up)
chain: NLDFQALEETTEYDGGYTRDSVLIREFWEIVHSFTDEQKRLFLQFTTGTDRAPVGGLGKLKMIIAKNGPDTERLPTSHTCFNVLLLPEYSSKEKLKERLLKAITYAKGFGML
notes: E6AP (UBE3A), HECT-type ubiquitin ligase, C-lobe of the catalytic domain, residues 741-852; catalytic Cys820; numbers count on: isoform 1 (ends at residue 852); Cleavage by 3C protease may leave a few residues of the vector at the N-terminus; In the crystal the two Cys820 are read as partly joined by an intermolecular disulfide; also called E6AP C-lobe; C-terminal lobe of E6AP; source: E. coli …
In the case of B1, the “stoichiometry N” value was determined as 2.
